{"source": "patent US6884600B1", "about": "“Protein phosphatase-1 catalytic subunit interactions” (Medical Research Council London, priority 1996, dated 2005)", "molecules": {"B1": {"name": "M110-(M1-E309): rat aorta M110 fragment, residues 1-309, released from GST-fusion protein with thrombin (protein)", "chain": "GSPGMKMADAKQKRNEQLKRWIGSETDLEPPVVKRQKTKVKFDDGAVFLAACSSGDTDEVLKLLHRGADINYANVDGLTALHQACIDDNVDMVKFLVENGANINQPDNEGWIPLHAAASCGYLDIAEFLIGQGAHVGAVNSEGDTPLDIAEEEAMEELLQNEVNRQGVDIEAARKEEERIMLRDARQWLNSGHISDVRHAKSGGTALHVAAAKGYTEVLKLLIQAGYDVNIKDYDGWTPLHAAAHWGKEEACRILVDNLCDMETVNKVGQTAFDVADEDILGYLEELQKKQNLLHSEKRDKKSPLIESTANMEA"}}, "key": {"PP1c [1]": {"target": "T1, PP1c (Oryctolagus cuniculus, UniProt P62143)", "T1 construct": "from tissue; host or cells: rabbit skeletal muscle (PP1G dissociated with LiBr)", "T1 sequence (P62143 whole entry)": "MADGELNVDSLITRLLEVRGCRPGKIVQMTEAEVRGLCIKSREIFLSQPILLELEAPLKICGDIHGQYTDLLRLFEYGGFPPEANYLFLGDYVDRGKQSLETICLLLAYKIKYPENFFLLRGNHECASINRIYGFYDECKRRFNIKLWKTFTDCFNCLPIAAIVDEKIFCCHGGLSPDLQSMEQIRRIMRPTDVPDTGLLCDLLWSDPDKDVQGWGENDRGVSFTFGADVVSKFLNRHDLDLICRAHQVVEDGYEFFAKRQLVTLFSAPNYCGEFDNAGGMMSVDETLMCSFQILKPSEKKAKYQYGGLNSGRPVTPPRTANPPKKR", "assay": "Phosphorylase phosphatase activity of PP1c", "assay_type": "biochemical, rabbit", "procedure": "(§1) A,B; Effects of M110-(M1-E309) (closed circles), M110-(M1-F38) (open circles) and M110-(D39-E309) (open triangles) on the MLC20 phosphatase […] and phosphorylase phosphatase (B) activities of PP1c were measured after incubating PP1c for 15 minutes at 30° C. with each fragment. The results are presented as a percentage of those obtained in experiments where the M110 fragments were omitted.\n(§2) C,D; The effect of M110-(M1-A150) (open circles) and M110-(L24-Y496) (closed circles) on the MLC20 phosphatase (C) and phosphorylase phosphatase (D) activities of PP1c were measured as in A,B.\n(B) The phosphorylase phosphatase activity of PP1c was assayed as in A in the presence or absence of 1 μM GM-(G63-T93) and 1.0 nM M110-(M1-E309). The results are presented (SEM for three experiments) as a percentage of the PP1c activity measured in the absence of GM-(63-T93), M110-(M1-F38) or M110-(M1-E309).\n(§3) The myosin-associated form of PP1 (PP1M) was from chicken gizzard and the glycogen-associated form of PP1 (PP1G) from rabbit skeletal muscle. The β isoform of PP1c was released from PP1G by incubation for 2 hours in 2M LiBr, then purified by gel-filtration on a 30×1 cm column of Superose 12 (Pharmacia, Milton Keynes, U.K.) in the presence of 0.5M LiBr. Glycogen protein particles from rat liver were used as the source of hepatic PP1G Digoxygenin-labelled PP1c (γ1-isoform, hereafter termed PP1) was prepared as in [9]. GL was expressed in E. coli as a glutathione-S-transferase (GST) fusion protein [7], termed GST-GL. The catalytic subunit of PP2A from bovine heart (PP2AC) was provided by Dr R. MacKintosh in this Unit. The phosphorylatable myosin light chain (MLC20) and heavy meromyosin from chicken gizzard were a gift from Dr M. Ikebe (Case Western Reserve University, Cleveland, USA). Thrombin and benzamidine-Agarose were purchased from Sigma (Poole, UK).\n(§4) ^32P-labelled rabbit skeletal muscle phosphorylase a (containing 1.0 mol phosphate per mol subunit) was prepared by phosphorylation with phosphorylase kinase, ^32P-labelled rabbit skeletal muscle glycogen synthase (containing 1.5 mol/mol subunit in the sites 3 region) was prepared by phosphorylation with glycogen synthase kinase-3 [24]). ^32P-labelled chicken gizzard MLC20 and ^32P-labelled chicken gizzard heavy meromyosin (containing 1.0 mol phosphate per mol subunit) were prepared by phosphorylation with smooth muscle myosin light chain kinase. The dephosphorylation of phosphorylase a (10 μM), glycogen synthase (1 μM) and MLC20 (1 μM) and heavy meromyosin (1 μM) was carried out as in [24]. One unit of activity (U) was that amount which released […] of phosphate in one minute.\n(§5) PP1c was isolated from the rabbit skeletal muscle PP1-GM complex as described previously (Johnson et al, 1996). Glycogen particles isolated from rat liver (Schelling el al, 1988) served as the source of PP1-GL. The dephosphorylation of glycogen phosphorylase (10 μM) and the isolated MLC20 of smooth muscle myosin (1 μM) by PP1c was carried out as described previously (Cohen et al., 1988; Alessi et al., 1992)."}, "PP1c [2]": {"target": "T1, PP1c", "assay": "MLC20 (myosin P-light chain) phosphatase activity of PP1c", "assay_type": "biochemical", "procedure": "as §1, §2\n(A) The MLC20 phosphatase activity of PP1c was assayed after incubation for 15 minutes at 30° C. in the presence or absence of 1 μM GM-(G63-T93) and either 0.1 μM M110-(M1-F38) or 0.1 nM M110-(M1-E309).\n(1-38, open circles) or M110[M1-K35] (1-35, closed circles) were incubated with PP1c for 15 min at 30° C. and reactions started with the ^32P-labelled MLC20 substrate. The results are expressed as a % of the activity determined in control incubations where the M110 peptides were omitted (100%). Similar results were obtained in three separate experiments.\nas §3, §4, §5\n^32P-labelled myosin P-light chains containing 1.0 mol phosphate per mol subunit was prepared by phosphorylation with smooth muscle myosin light chain kinase. The dephosphorylation of myosin P-light chain (1 μM) was carried out as in [4] and one unit of activity (U) was that amount which catalysed the release of 1 μmole of phosphate in one min. When assaying PP1M in immunoprecipitates from the myofibrillar extracts, the tubes were shaken continuously and 3 nM okadaic acid was included to inhibit any PP2A present."}, "M21 subunit": {"system": "M21 subunit", "sequence (as listed by the source)": "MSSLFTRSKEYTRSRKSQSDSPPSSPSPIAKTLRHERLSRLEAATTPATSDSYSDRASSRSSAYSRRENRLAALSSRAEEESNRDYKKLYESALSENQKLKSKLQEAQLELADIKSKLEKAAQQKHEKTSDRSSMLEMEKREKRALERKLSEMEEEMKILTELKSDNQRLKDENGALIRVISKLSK", "assay": "Far Western blotting: interaction with the M21 subunit", "assay_type": "binding, chicken", "details": "probe 0.2 μg/ml", "how_it_was_run": "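Proteins (PP1M, M110 and M21 fragments, MBP or GST fusions) resolved on 12% or 16.5% SDS gels, transferred to nitrocellulose and probed with digoxigenin-labelled M21, M21-(M1-L146) or MBP-M110-(K933-I1004) at 0.2 μg/ml. Parallel gels Coomassie-stained; protein by Bradford.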"}}, "data": [{"molecule": "B1", "values": [{"measurement": "suppression of PP1c activity towards glycogen phosphorylase", "setting": "PP1c [1]", "value": "about 80%"}, {"measurement": "concentration required to activate the MLC20 phosphatase activity maximally", "setting": "PP1c [2]", "value": 0.1, "unit": "nM"}, {"measurement": "increase in PP1c activity towards MLC20 (maximal activation)", "setting": "PP1c [2]", "value": "about 3 fold"}, {"measurement": "recognised by digoxigenin-labelled M21 subunit in Far Western blotting", "setting": "M21 subunit", "value": "not"}]}]}
